Our source for the Galactosidase units (Galactosidase units) values is patent US5637463.

Common to all, as to test: yeast two-hybrid with co-expressed Lck, LacZ reporter
The target in assay [1] is LexA-FcεRIγCT mutant with Tyr75 changed to phenylalanine, co-expressed with Lck (E. coli; human) (UniProt P0A7C2).
Assay [2] has as its target LexA-FcεRIγCT double mutant with Tyr64 and Tyr75 changed to phenylalanine, co-expressed with Lck (E. coli; human) (UniProt P0A7C2).
Assay [3] addresses LexA-FcεRIγCT mutant with Tyr64 changed to phenylalanine, co-expressed with Lck (E. coli; human) (UniProt P0A7C2).
The target of assay [4] is LexA-βCT fusion protein (C-terminus of the rat β subunit of FcεRI), co-expressed with Lck (E. coli; rat).
Assay [5] deals with LexA-NLS-FcεRIγ CT fusion protein, co-expressed with Lck (tyrosine-phosphorylated) (E. coli; human) (UniProt P0A7C2).

On to “Vmw65-Syk N+C SH2 fusion protein (human Syk amino acids 11-262) (from UniProt P06492)”, for which the Galactosidase units (Galactosidase units) was determined as 0 in assay [1]; 0 in assay [2]; 0 in assay [3]; 1070 in assay [4]; 559 in assay [5].

“Vmw65-SykC SH2 fusion protein (human Syk amino acids 173-262) (from UniProt P06492)”: the Galactosidase units (Galactosidase units) in assay [1] is 0; in assay [2], 0; in assay [3] it was 0; in assay [4], 593; in assay [5] it was 0.

Turning to “Vmw65-Lyn SH2 fusion protein (human Lyn amino acids 124-229) (from UniProt P06492)”, the Galactosidase units (Galactosidase units) turned out to be 0 in assay [1]; 0 in assay [2]; 0 in assay [3]; 858 in assay [4]; 0 in assay [5].

As to “Vmw65-SykN SH2 fusion protein (human Syk amino acids 11-111) (from UniProt P06492)”, the Galactosidase units (Galactosidase units) in assay [1], in assay [2], in assay [3], in assay [4] and in assay [5] was 0 in each case.
